From publication PMC3777949, “Dimerization Mediates Thermo-Adaptation, Substrate Affinity and Transglycosylation in a Highly Thermostable Maltogenic Amylase of Geobacillus thermoleovorans” (PLoS ONE, 2013)

How the values were obtained:
[1] = target: Gt-Mamy D109A mutant (Geobacillus thermoleovorans)
[2] = target: maltogenic amylase of Geobacillus thermoleovorans (Gt-Mamy), recombinant wild type (Geobacillus thermoleovorans); experiment: SEC; Sephacryl S-200 high resolution column, 100 mM sodium phosphate pH 7 with 50 mM NaCl, 0.3 ml/min; masses from a plot of molecular weight vs Ve/Vo against standards

Row | Ea required for thermal denaturation [1] [kJ/mol] | T1/2 of thermal inactivation at 80, 90 and 100°C [1] [h] | stoichiometry N [2] | Substance
1 | 141 | 44.6 |  | Gt-Mamy D109A mutant (enzyme)
2 |  |  | 2 | maltogenic amylase of Geobacillus thermoleovorans (Gt-Mamy), recombinant wild type (enzyme)
